From patent US20220017636A1 (Amgen, published 2022)

Experiments:
Assay in all cases: flow cytometry, peptide-loaded T2 cells;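 further: binding of single-chain Fv antibody constructs, raised in XenoMouse, to peptide-pulsed T2 cells measured by flow cytometry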
[1] = target: T1, COX14 peptide complexed with HLA-A*02:01 on T2 cells (human)
T1 construct: whole, on cells
Method: (§1) Binding of pMAGE-HLA scFv constructs, generated from the XenoMouse, on peptide loaded T2 cells was evaluated by flow cytometry.

[2] = target: T2, DPYSL4 peptide complexed with HLA-A*02:01 on T2 cells (human)
T2 construct: whole, on cells
Method: as §1

[3] = target: T3, MB peptide complexed with HLA-A*02:01 on T2 cells (human)
T3 construct: whole, on cells
Method: as §1

[4] = target: T4, KEA peptide complexed with HLA-A*02:01 on T2 cells (human)
T4 construct: whole, on cells
Method: as §1

[5] = target: T5, SLK peptide complexed with HLA-A*02:01 on T2 cells (human)
T5 construct: whole, on cells
Method: as §1

[6] = target: T6, MYOF peptide complexed with HLA-A*02:01 on T2 cells (human)
T6 construct: whole, on cells
Method: as §1

[7] = target: T7, CNDP2 peptide complexed with HLA-A*02:01 on T2 cells (human)
T7 construct: whole, on cells; also called CNPD2
Method: as §1

[8] = target: T8, STXBP5 peptide complexed with HLA-A*02:01 on T2 cells (human)
T8 construct: whole, on cells
Method: as §1

[9] = target: T9, MAGEB2 peptide … (SEQ ID NO: 1) complexed with HLA-A*02:01 on the cell surface (human)
T9 construct: whole, on cells; also called pMAGE-HLA; MAGEB2 pMHC
Method: as §1

[10] = target: T10, ADF peptide complexed with HLA-A*02:01 on T2 cells (human)
T10 construct: whole, on cells
Method: as §1

Signal/background [1] | Signal/background [2] | Signal/background [3] | Signal/background [4] | Signal/background [5] | Signal/background [6] | Signal/background [7] | Signal/background [8] | Signal/background [9] | Signal/background [10] | Binder
1.1 | 1 | 1.2 | 0.9 | 1 | 1.2 | 1 | 1 | 298 | 1 | 18182-H12 (scFv, scFv in bacterial lysate, detected with anti-Flag M2) scFv: EVQLLESGGGLVQPGGSLRLSCAASGFTFSSYAMSWVRQAPGKGLEWVSTISGSGGGTYYADSVKGRFTISRDNSKNTLYLQMNSLRAEDTAVYYCATGKGVHLGFDYWGQGTLVTVSSGGGGSGGGGSGGGGSELMLTQPHSVSVAPGQTARITCGGNNIGSKSVHWYQQKPGQAPVLVVYDDNDRPSGIPERFSGSNFGNTATLIISRVEAGDEADYYCQVWDSSSDHVVFGGGTKLTVL
1 | 1 | 1 | 1 | 1 | 0.9 | 0.8 | 0.9 | 43 | 1.3 | 18179-C1 (scFv, scFv in bacterial lysate, detected with anti-Flag M2) scFv: EVQLLESGAEVKKPGASVKVSCKASGYTFTRNGLSWVRQAPGQGLEWMGWISGYNGDTNYAQKLQGRGTMTTDTSTSTAYMELRSLRSDDTAVYYCARGRATFDYWGQGTLVTVSSGGGGSGGGGSGGGGSELVMTQSPSSLSASVGDRVTITCRASQGISNYLAWYQQKPGKVPKLLISAASTLQSGVPSRFSGSGSGTDFTLTISSLQPEDVATYYCQKYNSAPFTFGPGTKVDIK
1 | 1 | 1 | 0.9 | 1.1 | 1.1 | 0.9 | 0.9 | 32 | 0.9 | 18081-H11 (scFv, scFv in bacterial lysate, detected with anti-Flag M2) scFv: EVQLLESGPALVKPTQTLTLTCTFSGFSFTTHKMGVDWIRQPPGKALEWLALIYWNDDKRYSPSLQSRLTITKDTSKNQVVLTMTNMDPVDTATYYCAYRRYNWNYENWFDPWGQGTLVTVSSGGGGSGGGGSGGGGSELQMTQSPSSLSASVGDRVTITCQASQDISNYLNWYQQKPGKAPKLLIYAASSLQSGVPSRFSGSGSGTDFTLTISSLQPEDFATYYCQQSYTTPFTFGPGTKVEIK
1 | 1.1 | 1 | 1 | 1 | 1.1 | 1 | 1 | 345 | 1 | 18179-D11 (scFv, scFv in bacterial lysate, detected with anti-Flag M2) scFv: EVQLLESGGGLVKPGGSLRLSCAASGFTFSNAWMSWVRQAPGKGLEWVGRIKGNTYGGTTDYAAPVKGRFTISRDDSKNTLFLQMNSLKTEDTAVYYCTTPSYSGSYYNYFSVMDVWGQGTTVTVSSGGGGSGGGGSGGGGSELQMTQSPSSLSASVGDRVTITCRTSQSISSYLNWYQQKPGRAPKLLIFAASSLQGGVPSRFSGSGSGTDFTLTISSLQPEDFATYYCQQTYSMPFTFGPGTKVDIK

Further lines, the binder ahead of its results:

Binder | Signal/background [1] | Signal/background [2] | Signal/background [3] | Signal/background [4] | Signal/background [5] | Signal/background [6] | Signal/background [7] | Signal/background [8] | Signal/background [9] | Signal/background [10]
18179-G12 (scFv, scFv in bacterial lysate, detected with anti-Flag M2) scFv: EVQLLESGAEVKKPGASVKVSCKASGYTFTRNGLSWVRQAPGQGLEWMGWISGYNGDTNYAQKLQGRGTMTTDTSTSTAYMELRSLRSDDTAVYYCARGRATFDYWGQGTLVTVSSGGGGSGGGGSGGGGSELVMTQSPSSLSASVGDRVTITCRASQGISNYLAWYQQKPGKVPKLLISAASTLQSGVPSRFSGSGSGTDFTLTISSLQPEDVATYYCQKYNSAPFTFGPGTKLEIK | 1.2 | 1.1 | 0.9 | 0.9 | 1.1 | 0.9 | 0.8 | 0.9 | 42 | 1.1
18089-D11 (scFv, scFv in bacterial lysate, detected with anti-Flag M2) scFv: EVQLLESGPVLVKPTQTLTLTCTFSGFSFTTHKMGVDWIRQPPGKALEWLALIYWNDDKRYNPSLQSRLTITKDTSKNQVVLTMTNMDPVDTATYYCAYRRYNWNYENWFDPWGQGTLVTVSSGGGGSGGGGSGGGGSELVMTQSPSSLSASVGDRVTITCRASQSISNYFNWYQQKPGKAPKLLIYAASSLQSGVPSRFSGSGSGTDFTLTISSLQPEDFATYYCQQSYITPFTFGGGTKLEIK | 1.1 | 1.1 | 1.2 | 1 | 1.2 | 1.1 | 1 | 1.1 | 78 | 1.1
18089-C9 (scFv, scFv in bacterial lysate, detected with anti-Flag M2) scFv: EVQLLESGPTLVKPTQTLTLTCTFSGFSFTTHKMGVDWIRQPPGKALEWLALIYWNDDKRYSPSLQSRLTITKDTSKNQVVLTMTNMDPVDTATYYCAYRRYNWNYENWFDPWGQGTLVTVSSGGGGSGGGGSGGGGSELQMTQSPSSLSASVGDRVTITCRASQFISSYLNWYQQKPGKAPKLLIYAASSLQSGVPSRFSGRGSGTDFTLTISSLQPEDFATYYCQQSYSTPFTFGPGTKVEIK | 1 | 0.9 | 1.1 | 1 | 1.1 | 1 | 1 | 1 | 39 | 1
18081-E7 (scFv, scFv in bacterial lysate, detected with anti-Flag M2) scFv: EVQLLESGPGLVKPSETLSLTCTVSGDSISSSRYYWGWIRQPPGKGLEWIGSIYYSGSTYYNPSLKSRVTISVDTSKNQFSLKLSSVTAADTAVYYCARGIFGVITYFDYWGQGTLVTVSSGGGGSGGGGSGGGGSELVMTQTPDSLAVSLGERATINCKSSQSVLYSSNNKNYLAWYQQKPGQPPKLLIYWASTRESGVPDRFSGSGSGTDFTLTISSLQAEDVAVYYCQQYYSTPLTFGGGTKVEIK | 1.1 | 1.2 | 1 | 1 | 1.4 | 1.1 | 1 | 1.1 | 298 | 1
18081-B9 (scFv, scFv in bacterial lysate, detected with anti-Flag M2) scFv: EVQLLESGPGLVKPSETLSLTCTVSGDSISSSRYYWGWIRQPPGKGLEWIGSIYYSGSTYYNPSLKSRVTISVDTSKNQFSLKLSSVTAADTAVYYCARGIFGVITYFDYWGQGTLVTVSSGGGGSGGGGSGGGGSELVMTQSPDSLAVSLGERATINCKSSQSVLYSSNNKNYLAWYQQKPGQPPKLLIYWASTRESGVPDRFSGSGSGTDFTLTISSLQAEDVAVYYCQQFYSTPITFGQGTRLEIK | 1 | 1.1 | 1.1 | 1.1 | 1.1 | 1.1 | 1 | 1 | 153 | 1
18179-D7 (scFv, scFv in bacterial lysate, detected with anti-Flag M2) scFv: EVQLLESGGGLVQPGGSLRLSCAASGFTFSNAWMSWVRQAPGKGLEWVGRIKGNTYGGTTDYAAPVKGRFTISRDDSKNTLFLQMNSLKTEDTAVYYCTTPSYSGSYYNYFSVMDVWGQGTTVTVSSGGGGSGGGGSGGGGSELVMTQSPSSLSASVGDRVTITCRTSQSISSYLNWYQQKPGRAPKLLIFAASSLQGGVPSRFSGSGSGTDFTLTISSLQPEDFATYYCQQTYSMPFTFGPGTKVDIK | 1 | 1.1 | 1 | 1 | 1.1 | 1 | 1.1 | 1 | 281 | 1
18179-B12 (scFv, scFv in bacterial lysate, detected with anti-Flag M2) scFv: EVQLLESGGGLVQPGGSLRLSCAASGFTFSNAWMSWVRQAPGKGLEWVGRIKGNTYGGTTDYAAPVKGRFTISRDDSKNTLFLQMNSLKTEDTAVYYCTTPSNSGSYYNYFSVMDVWGQGTTVTVSSGGGGSGGGGSGGGGSELVMTQSPSSLSASVGDRVTITCRTSQSISSYLNWFQQKPGKAPKLLIFAASSLQSGVPSRFSGSGSGTDFTLTISSLQPEDFATYYCQQTYSMPFTFGPGTKVEIK | 1 | 1 | 1 | 1 | 1 | 1 | 1 | 1 | 368 | 1
18179-A7 (scFv, scFv in bacterial lysate, detected with anti-Flag M2) scFv: EVQLLESGGGLVKPGGSLRLSCAASGFTFSNAWMSWVRQAPGKGLEWVGRIKGNTYGGTTDYAAPVKGRFTISRDDSKNTLFLQMNSLKTEDTAVYYCTTPSYSGSYYNYFSVMDVWGQGTTVTVSSGGGGSGGGGSGGGGSELVMTQSPSSLSASVGDRVTITCRTSQSISSYLNWYQQKPGRAPKLLIFAASSLQGGVPSRFSGSGSGTDFTLTISSLQPEDFATYYCQQTYSMPFTFGPGTKVDIK | 1 | 1 | 1.1 | 0.9 | 1 | 1 | 1 | 1 | 267 | 1
